Source: article PMC5909435

Target: T1, TFAM K4Q4 (acetyl-lysine mimic) (Homo sapiens, UniProt Q00059 43-246, K62Q;K76Q;K111Q;K118Q)
T1 sequence: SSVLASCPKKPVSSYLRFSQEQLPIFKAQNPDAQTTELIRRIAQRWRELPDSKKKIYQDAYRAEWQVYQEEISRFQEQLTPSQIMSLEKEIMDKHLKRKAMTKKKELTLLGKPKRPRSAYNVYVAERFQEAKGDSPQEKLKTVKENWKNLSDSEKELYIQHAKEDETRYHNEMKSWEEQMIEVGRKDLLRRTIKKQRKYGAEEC
Experiment: MST

B1: non-specific 18 bp duplex with 13 nt overhang (mixed)
DNA 1: GTCACTGTTCGAGCACCA
DNA 2: CCATAGATAGCATTGGTGCTCGAACAGTGAC
Kd: 131 ± 17 nM
